Reference: IntAct's records for PubMed 9153189

B1: Tumor necrosis factor receptor superfamily member 14 (Homo sapiens), Q92956 (parent)
chain: MEPPGDWGPPPWRSTPKTDVLRLVLYLTFLGAPCYAPALPSCKEDEYPVGSECCPKCSPGYRVKEACGELTGTVCEPCPPGTYIAHLNGLSKCLQCQMCDPAMGLRASRNCSRTENAVCGCSPGHFCIVQDGDHCAACRAYATSSPGQRVQKGGTESQDTLCQNCPPGTFSPNGTLEECQHQTKCSWLVTKAGAGTSSSHWVWWFLSGSLVIVIVCSTVGLIICVKRRKPRGDVVKVIVSVQRKRQEAEGEATVIEALQAPPDVTTVAVEETIPSFTGRSPNH
B2: Tumor necrosis factor receptor superfamily member 14 (Homo sapiens), Q92956 (parent)
chain: B1 chain
partner: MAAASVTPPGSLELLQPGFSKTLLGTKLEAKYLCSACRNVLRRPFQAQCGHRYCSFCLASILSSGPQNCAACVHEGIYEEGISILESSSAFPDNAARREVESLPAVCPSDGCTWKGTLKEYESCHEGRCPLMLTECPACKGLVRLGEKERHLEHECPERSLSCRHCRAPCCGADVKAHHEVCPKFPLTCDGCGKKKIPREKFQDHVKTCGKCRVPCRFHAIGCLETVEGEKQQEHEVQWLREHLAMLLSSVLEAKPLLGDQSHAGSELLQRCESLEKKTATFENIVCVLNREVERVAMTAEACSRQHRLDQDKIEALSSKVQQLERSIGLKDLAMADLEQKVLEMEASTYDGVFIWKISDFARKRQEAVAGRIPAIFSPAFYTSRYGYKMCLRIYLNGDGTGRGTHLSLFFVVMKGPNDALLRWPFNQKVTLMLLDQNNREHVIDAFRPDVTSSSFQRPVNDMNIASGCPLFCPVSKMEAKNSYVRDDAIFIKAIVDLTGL

Variants of: B1
Settings: with traf5_human TRAF5, O00463
Sequence of traf5_human TRAF5, O00463 (O00463 whole entry): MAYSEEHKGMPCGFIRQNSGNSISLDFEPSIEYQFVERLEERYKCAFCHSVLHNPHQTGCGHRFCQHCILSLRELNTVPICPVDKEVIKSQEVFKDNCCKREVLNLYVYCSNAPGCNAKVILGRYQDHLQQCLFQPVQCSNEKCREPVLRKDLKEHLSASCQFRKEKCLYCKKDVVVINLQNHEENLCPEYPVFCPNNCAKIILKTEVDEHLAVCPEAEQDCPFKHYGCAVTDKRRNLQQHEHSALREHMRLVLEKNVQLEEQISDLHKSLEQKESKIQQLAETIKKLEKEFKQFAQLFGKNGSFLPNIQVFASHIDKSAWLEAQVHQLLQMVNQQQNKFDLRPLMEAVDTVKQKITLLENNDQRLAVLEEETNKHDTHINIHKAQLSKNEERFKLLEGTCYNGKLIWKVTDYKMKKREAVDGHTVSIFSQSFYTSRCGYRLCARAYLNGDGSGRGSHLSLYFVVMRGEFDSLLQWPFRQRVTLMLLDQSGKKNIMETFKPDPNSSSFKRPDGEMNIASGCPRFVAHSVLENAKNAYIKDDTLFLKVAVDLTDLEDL

| effect of a mutation on the interaction | Variant |
| --- | --- |
| decreasing interaction | E271A |

Variants of: B2
Settings: with traf2_human TRAF2, Q12933

| effect of a mutation on the interaction | Variant |
| --- | --- |
| decreasing interaction | E271A |
